The DeepSol protein solubility set

Test: soluble on expression in E. coli; label from the status in PepcDB or PDB records

Row | Sequence | soluble on expression in E. coli
1 | MSLEKLTYAEVVNVIDGQVLGGRAGLHKTLNKFVIGAMELDAMMRYTAAGNLLIVGNRINAHRQALEAGAAVLVTGGFNTDDSIVQLADELELPILSTSYDTFTVAAMINRAIYDQLIKKEIVLVEDILTPADRTVYLSPKDKLEKWYEKNFETGHGRFPVVDDQMKIHGILTSKDIAGHDRNASIEKVMTKNPVTVIGKTSVASAAQMMVWEGIEVLPVTDGHQKLIGMISRQDVLKALQMIQKEGHHHHHH | soluble
2 | MSLEKTKLPWDEFFSLNKDINHTYFTPEDFSGDEDLIAKTTEQFVKQEIVPQMENIEQHNYKVSRQLFEKAGELGLLGIEVPEDYGGFELGKAVSGLVAEKMGYAGAFSVSFNIHAGVGTLPYIYYGTKEQKEKYLPKIASGEWIGAYALTEPNAGSDALSAKTSAVLNEEGTAWKLNGEKQWITNAHMADVYVVFAKTNKGMTAFIVERTCEGVSIGLEEKKMGIKGSSTATLILEDVVIPAENVLGEVGKGHHVALNILNFARLKLAFGNIGTAKQAIGLSVQYGKERKQFQTELVDFTMIQEKIANMIIATYGAESAAYRTAGVIDEAIHESDEDLMKKMSQFAIECALNKVNASETLAYIVDEAVQIHGGYGYMQEYEVERLYRDARISRIFEGTNEINRLTVAKMLMKQIEQLEDTEVESDVANVERNHRYILLAKKLLKQSLKTLSKTPGLKIDQEQEYSRVISNMLTDVYVMESAFLRTRKAVSKNGEEKERTKQLITDVICEEGYRKVEEAAISVLSAAVTEEQDRHVILAEIRQLLVPLYTNVFTKKREIAKAIINRGKYIVEGHHHHHH | soluble
3 | MSLELSLADRPAIVTGASRGIGREIAARFAEAGGDVVVCSRTYEDVEAVATELTQTHDGRVVPVECDVTDREAVRDLVDTTIQEFGDIRVLVNNAGGADESANLLHRCDEETFESMVDLNLKSQFLLSKEVLPAMVAAGGGSIIHMGSVNGLFGIGLSGYSEAKSGLLALSRNIAAHYGQHGVRSNVISAATIETANRRAEMENTEERTGETSARERWLDQYPLGRFGTPREVADTTLFLASEMSSFLTGENLVLDGGLTTSLPTSFINEVYDADEKPTPNEGHHHHHH | soluble
4 | MSLENLQTNFSLVQGSTKKLNGMGDDGSPPAKKMITDIHVNGKTINKVPTVKKEHLDDYGEAPVETDGEHVKRTCTSVPETLHLNPSLKHTLAQFHLSSQSSLGGPAAFSARHSQESMSPTVFLPLPSPQVLPGPLLIPSDSSTELTQTVLEGESISCFQVGGEKRLCLPQVLNSVLREFTLQQINTVCDELYIYCSRCTSDQLHILKVLGILPFNAPSCGLITLTDAQRLCNALLRPREGHHHHHH | soluble
5 | MSLENTDINISALLNVDIDKILKQTIKEKIEKLMEIELNAYLEENPGIKNGKYKRDLKTKYGEIKQLNVPRDRDSNFHTQVIEPYNRSIGMEDLIVSMYSNGISTRRIAGIMEDILGNKYSKSTISRITDLTIEEVYKFINRPLDKRYIAVFLDGLFFYLRRGNVDKEPVIFALGIKETGEYEVLGFYLTVKESHNAYKEVLEDLYNRGLKEPLLIVADGIKNLDEEVMEIYPRSEFQLCTIHYARGLKSNVREKDIDEITIDANKMFKCDNKEEAIIRFNDFKYKWKSKYPKVIYNTEKNLGKLLRFYNYPVNIRKSLKSTNAIERFNGEVRRRVKTISSFPDEDSAMKVFYYKSIEYNSKHAFRKMNGYYKCKDEIKEMFQKREGHHHHHH | not soluble
6 | MSLENVDPFDIIRQFRSVIAKTSLQASSNIEGLDTVWNSDLVLEANFWHLVEILLSFRTSQEFLDKESSISSKPYNSSIIFEKELLQKDKNLYQIWLIIVWIEGNFPFVEKPSNIPSSKWTNTLVTSGLMSSDLDYPLRDCSVVINDKDKADDHVFYKYVYELLLCGNYDQIFEECKLSDNITLNMIMCGMQEYVDPSIDVQLKDEFEVQQGVKKHSLWRRAVYSLSQNDKLDKYERAIYSYLAGDIPNDEVLQTLNWDSELLVYLNQILKIEVENYLLQNGKVNNDELILSLPSNTMDLQSILNLLSAKHPEESEHPIRVLIGSVMLNTIPSVLHSSVSMLMNVVTGIENDNDIFGEPYLLRVVTHMTIFLEILNPGTISESDKTKLITAYISILKSQELYDLIPIYISFLSHNEAIEASSFILSNLEGKDIRKKQLEICNFLKLPVEDMLKRTTQCVFAETEGHHHHHH | not soluble
7 | MSLEPKIVRFDLGKEYIILTSALYPEGIIRVNQICSIFVDKSYCSGNPWGDVINWCPSKSAIMFMTAAKNYTFKETDWGKFFISAGIGRSGEDAGCTINIGVFVDKGLNINGLVDLIRTVTEAKAGALRDLGYKFTGTVSDAIAVGSLPGNEYFIGPGTELGKKIAYDIRNTIVELLFKGDDEGHHHHHH | soluble
8 | MSLEQELKLLFLRAHQRALSSLQFTEEAVDFLISCADGDARRLLNLLEQTKTACLTIKTAVVDVELLHNVIVQNSRRFDKGGEAFYDQISALHKSVRGSNPDAALYWLCRMLDGGVDPYYLARRIIRMSWEDIGLADPKAIQIANDAAATYERLGSPEGELALAQAVIYLSVAAKSNAGYVAFNQAMEFIKRDKSREVPIHLRNAPTQLMKKLGYGHEYRYAHDEPHGYAAGECYLPEGMPEVNWYNPVQRGLETKIAEKLAFLRQLDKDVKKEGHHHHHH | not soluble
9 | MSLESGELIGACEFMKDRLYFATLRNRPKSTVNTHYFSIDEELVYENFYADFGPLNLAMVYRYCCKLNKKLKSYSLSRKKIVHYTCFDQRKRANAAFLIGAYAVIYLKKTPEEAYRALLSGSNPPYLPFRDASFGNCTYNLTILDCLQGIRKGLQHGFFDFETFDVDEYEHYERVENGDFNWIVPGKFLAFSGPHPKSKIENGYPLHAPEAYFPYFKKHNVTAVVRLNKKIYEAKRFTDAGFEHYDLFFIDGSTPSDNIVRRFLNICENTEGAIAVHCKAGLGRTGTLIACYVMKHYRFTHAEIIAWIRICRPGSIIGPQQHFLEEKQASLWVQGDIFRSKLKNRPSSEGEGHHHHHH | soluble
10 | MSLESVQNYEAKSAHAHQAFFLKFEELKEVSKEQPRLEAEYPANTTKNYDHSRVRLTQLEGEPHSDYINANLVPGYTRPQEFIASQGPLKKTLENFWRLVREQQVRIIIMPTISMENGRVLCEHYWLTDSTPDTHGHITIHLLAEEPEDEWTKREFQLQHLLRGCPCGVGMGRTGTFVALSRLLQQLEEEQMVDVFHAVYALRMHQPLMIQTLSQYVFLHSCLLNKILEGPFNISESWPISVTDLPQACAKRAASANAGFLKEYEAIKDEAGFSAPPPGYEQDSPVSYDRSQGQFSPVEESPPDDMPEAWLFPGGPSGRDHTVLTGPAGPKELWELVWQHRAHVLVSLCPPNVMEKGESRKEREVQRLQFPYLEPGHELPATTLLPFLAAVGQCCSRGNNKKPGTLLSHSKCCWTMVSCSKGATQLGTFLAMEQLLQQAGSECTVDIFNVALQQSQACGLMTPTLITQQCLLLSDCTAPPPTEGHHHHHH | not soluble
11 | MSLETRARNSTRPASGLIDWEQARQAALRLSQWEQAPVDNRAFRREQYARMVALSEPLIADYLGVRLPEPVSRIFVFDRREWLEANIVSFSQLFRPIEEMYEKNGGGRGALGVLMNDVSSKLLGVQIGGLLGYLAQRVLGQYDLSLLSAEATGGSLYFVEPNIARVQQQLGLSDEDFRLWITLHEMTHAFEFEAYPWVRTYFRELLEQNFALVSGQMLSSGNSLVDMLMRLLQGIGSGQHWIETVLTPEQRAVFDRIQALMSLIEGYGNHVMNAVGRRLLPSFNQIEQQIAQRQRQRTMLDQMVFRLTGLDLKLAQYQQGEAFVNAVVAARGIQFASRVWERPENLPSMDEIRNPGQWIVRMDREGHHHHHH | soluble
12 | MSLEVEVYRDPLSGFKDNKKSAPVKLNDEQQFALNQITAAIDKRKAETFLLEGITGSGKTEVYLHAISKALEQGRNALMLVPEISLTPQMVRQVKSRFGQAVAVLHSALSEGEKYDEWRRIRRGETRVVVGARSAVFAPLDNIGLIVIDEEHESSYKQETDPRYNARDVAIWRSKYHHCPLVLGSATPSLGSRARAQKNVYKLLRLTKRANNKKLPKVNLIDLKHVQFAGGQFDLSVNLVDAIKKRLDNKEQVILMLNRRGFANFMLCRECGFVLKCPNCDVSLNLHKDTNSMQCHYCGHTERVPSRCPNCQSSKIRFLGTGTQKVQEELEELLPGARILRMDVDTTRKKGSYKRILDSFGNHEADILLGTQMIAKGLDFPNVTLVGVINADTGLWLSDYNASEKTFELLTQVAGRAGRANKEGEVLIQTYNPEHYAIQLAQTQNYERFYGYEMNVRHAGNYPPYFFTVLISIAAKKEQNAAREAFRIKRYLSQHLHEEMIILGPTPSAISRVKNQYYYQILVKYKKEPNIKELLHHIQDSAQEAKKYGLNVFIDNEPEKIMEGHHHHHH | not soluble
13 | MSLEVIKHDGPGRLGVIRLEPPVQTPALAGVDFTISPFNSYFNPKEYHDYDFNLAPSIPLSYYTPDEVIEKALKRIETVDYSKFNTFYFPALKRDKYYPRFVELIEENDFDAIYIGNSKVMIKDYRGFVATLRILREKFPNAVLITDLEPFFYPLAVYLGVDAFDVRSLKIYSYEGLGFTPFSPVIWDRPNDPIEFAREMIKIIKIAIQEGKLRYLVENFLPTVMNVGILRIADKEHGDYLEKYTPVHDKTVVFISEHSISRPEVFRWRKRIEERFEPPKGIDLLLIFPCSAKKPYSRSRSHMMYRKVMKEALGEKVHRVHELVVTSPYGVVPREWEWLAKYDIVVTGHWSESEVRFAGELLAQTIEKYPDIPIVAHVEGGYREAVKYAMELVNRDVIFTAVGSSTISKESLDKLKKTLKEFDLRDEGHHHHHH | not soluble
14 | MSLEVPLLEVLLYTDGSVTRILERFFEEVTIDPLETRKLKVEGREARLLGVPDGDTVYVRRVVIKVDGRPAILATSLARPDNLPGRLRRLVLQSRKPLGKMIEELRLETRREILRVEEARPSPEDEEILDVSVPKIPWREYLVYHRRTPMLLIRERFNPEVLGREGEGHHHHHH | not soluble
15 | MSLFFGFTSCLDICPSTLTILGQAEKHRENLPETQRPQVLFVSINPDRDSPLRLSGYARAFHKNILTTTADTPALQRFATALGLRFRKVPGKSYAENPLDDTMDHPTAIVVLDPQGHHVGMIHPPFNAEEIPTDLQKLTKEITEGHHHHHH | not soluble
16 | MSLGDEGWQTVIGLEIHAQIKTGKKLFSKASTSYGHVPNTNVDVHDAAFPGTLPVLDINAIRLSIMTALALNCQINPRSTFDRKHYFYHDIPASYQITQHYNPLAWNGHLEIREGDNGSKRTFNIGIKQLQVEQDTAKSQTVGDAVLVDLNRAGTGLMEIVTDPDMRSPEEAGAFVKKLQGLLRRVGSADGDMEKGNLRVDVNVSVHRPGMPFGTRCEIKNINSVRFLQAAIESERQRHIAHYCTSPLEPLAQETRGFNELTLQTYSLRSKEEATDYRYMPDHNLPAIIIDDGYLDSLWKNLPEMPWQSVERLVKTYGVTKRDAETLLGLDEYSAQGIAYFEEVVEQDKKIAKKATNWIAHELLGQLGKAIRPWTPTIVPAPLMHELVTAVESREITGTTGKAIVKHFVSLPESASLPPSFAELLAELGLTPSAASVEDLTETCKKAMNNQPKAVADFKKGNEKVVMRLVGEVMKLSGGKADAMKAKDILLDLLKDEGHHHHHH | not soluble
17 | MSLGELNVATVTRRPEILLVDSQEVILQRLQQLLSPLPYTLHFARDATQALQLLASREVDLVISAAHLPQMDGPTLLARIHQQYPSTTRILLTGDPDLKLIAKAINEGEIYRYLSKPWDDQELLLALRQALEHQHSERERLRLQDLAQQQNAELKALNTLLEKRVAARTSELQQTADMLDLAYEELKPSYATGAELFSLLVNQRLPADKQTNRRIIELVRAYCKVQGIDPGAQRDLAMAAALHNIGKLSWSDSMMTSPADLLHHHQRERYRAYPAQSESLLMTLEPVQDAARLIRHHQEHWDGSGFPDHLKGDAIPLGSRLLKLAVDFIELQCGLILERHMNSDEALVFIRKYAGRLYDPDLVEGFIQVCAVYLSDVTLGDPSVKVLSTRELAAGMILARNLNADNGMLLLNAGKVLNLPLVDKLIAFETMEGARYSVFVKLPQEQQARAEGHHHHHH | not soluble
